Reference: patent publication US20140302063A1 (SECRETARY OF STATE FOR HEALTH, published 2014)
Numbering of substitutions follows the chain as printed.

B1: R1a-B6 (VHH)
VHH: QVQLVESGGGLVQPGGSLRLSCAASGSFFSRYRMGWYRQAPGEQRELVASIAYDGSTSYADPVKGRFTISRDNANTVHLQMYSLKPDDTAVYYCNLDPPGILYWGQGTQVTVSS
B2: R1a-E6 (VHH)
VHH: QVQLVESGGGLVQPGGSLRLSCAASGFTLGAYAIAWFRQAPGKEREGVSCISPSDSFTEYGDSVKGRFTVSRDNAKNTVYLQMNSLQPEDTAVYYCAADPVCTAGWYRPSRFDLWGQGTQVTVSS
B3: R2b-D9 (VHH)
VHH: QVQLVESGGGLVQPGGSLRLSCLASGSAFSLYTMGWYRQAPGNQRELVAAITSGESTNYADSVKGRFTISRDNAKNTVYLQMNSLKPEDTAVYYCNADPLSTGWGQYSYWGQGTQVTVSS
B4: R2b-E8 (VHH)
VHH: QVQLVESGGGLVQPGGSLRLSCAASGSFFSRYRMGWYRQAPGEQRELVAGITYDDSTNYAGSVKGRFTISRDNAKNTVHLQMNSLKPEDTAVYYCNLNPPGNLYWGQGTQVTVSS
B5: R2a-B9 (VHH)
VHH: QVQLVESGGGLVQPGGSLRLSCAASGSAFSINAMGWYRQAPGEEREFVAAITAGGNTYYADSAKARFTISRDNAKNMLYLQMNSLKPEDTAMYYCAATKAFGIATITADYELWGQGTQVTVSS
B6: R1a-F5 (VHH)
VHH: QLQLVESGGGLVQVGGSLRLSCAASGFPFDGYAIAWFRQAPGKEREGVSCRASDGNTYYAESLKGRLTMSTDNAKNTVYLQMNSLKPEDTAVYYCAAASWVASLWSPSEYDYWGQGTQVTVSS
B7: R2b-D8 (VHH)
VHH: QVQLVESGGGLVQPGGSLRLSCAASGFTFSWYDVGWYRRAPGKERELVADIASTRGTTNYADSVKGRFTISRDNAKNSVYLQMNSLKPEDTAVYYCNTRRDWRDYWGQGIQVTVSS
B8: R2a-E8 (VHH)
VHH: QLQLVESGGGLVQPGGSLRLSCTASGDIFVMYMIDWYRQAPGKQRELVASIDGRGTPMYADSVKGRFTISRDNAKNTVYLQMNSLKPEDTAVYSCHAKSPLVDNEYWGQGTQVTVSS
B9: R1a-G5 (VHH)
VHH: QLQLVESGGGLVQPGGSLRLSCAASGSISRIVTMGWYRQASGKERELVAVIGNYGNTNYADSVKGRFTVSRDNAKDTAYLQMNGLNVEDTAIYYCKTSTTTPPYEYWGQGTQVTVSS
B10: R1a-F4 (VHH)
VHH: B9 VHH with L2V, A40G, S41P, G84N, I92M, T97C, Y104H, Y106F
B11: R1a-A5 (VHH)
VHH: QVQLVESGGGLVQPGGSLRLSCSASGSAVLFSTYPMSWYRQAPGKQRELVAAVTTDGSTSYADYAKGRFTISRDNAKNTVYLQMNSLKPEDTAVYYCNARDGFFNRYDYWGQGTQVTVSS
B12: R1a-H6 (VHH)
VHH: QVQLVESGGGLVQAGDSLRLSCTASVLTFSLYRVGWFRQAPGKEREFVAAIDWGDGPTTYADSVKGRFTISRDNAERTAYLQINSLKPEDTAVYYCGAGNTGSSDRSSSYVHWGQGTQVTVSS
B13: R1a-E5 (VHH)
VHH: QLQLVESGGGLVQPGGSLRLSCTASGFSLDNYAIGWFRRAPGEEREGVSFITSTSAVTKYADSVKGRFTISRDNAKNTVYLQMTSLKPEDTAVYYCAGTRWVPTMKADEYNYWGQGTQVTVSS
B14: R2a-G8 (VHH)
VHH: QLQLAESGGGLVQAGGSLRLSCAASGSTLNNNAIGWFRQAPGKEREGVSCMNSRDGTTNYADSVKGRFTISRDVAKNTVYLQMNSLKPEDTAVYFCAVKGFAPFLIGCPWGKAEYDYWGQGTQVTVSS
B15: R1a-G6 (VHH)
VHH: QVQLVESGGGLVQSGGSLRLSCAASGSMSRIITMGWYRQAPGMERELVAVIGNNDNTVYGDSVQGRFTVSRDNAKNTAYLQMNSLNAEDTAMYYCKISTLTPPHEYWGQGTQVTVSS
B16: R1a-C5 (VHH)
VHH: QVQLVESGGGLVQPGGSLRLSCAASNDIFSFYTMGWYLQAIGKQREPVAVIGNGGNTNYAESVKGRFTISRDGAKNTAYLQMNSLKPEDTAVYYCMASGPGGLNVWGQGTQVTVSS
B17: R2a-G9 (VHH)
VHH: QVQLVESGGGLVQPGGSLRLSCAASDNIFSFYTMGWYRQSPGKERELVAVIGNGGNTNYADSVKGRFTISRDNGKNKAHLQMNSLKPEDTAVYYCKASGPGGVEVWGQGTQVTVSS
B18: R2a-F9 (VHH)
VHH: QVQLVESGGGLVQPGGSLRLSCSASGSISSIVTMGWYRQAPGKERELVAVIGNYGNTNYADSVKGRFTVSRDNAKNTVYLQMNSLNVEDTAMYVCKFSSTVAPHEYWGQGTQVTVSS
B19: R2a-H9 (VHH)
VHH: QVQLVESGGGLVQPGGSLRLSCAASTNIASFYTMGWYRQTPGQQRDVVAVIGNGGNTNYADSVKGRFTISRDGAKNTAHLQMNSLKPEDTDVYYCKASGPGGVILWGQGTQVTVSS

Key:
[1] = biological target: A/Brisbane/59/2007 (H1N1-like) inactivated viral preparation (Influenza A virus A/Brisbane/59/2007 (H1N1-like)); assay: ELISA, inactivated virus
[2] = biological target: A/California/7/2009 (H1N1) inactivated viral preparation (Influenza A virus A/California/7/2009 (H1N1)); assay: ELISA, inactivated virus

| Binder | EC50 [1] [µg/mL] | EC50 [2] [µg/mL] |
| --- | --- | --- |
| B1 | 0.58 | 0.39 |
| B2 | – | 2.46 |
| B3 | 0.8 | 0.9 |
| B4 | 18.4 | 3.64 |
| B5 | 9.84 | 1 |
| B6 | 0.7 | 0.55 |
| B7 | 14.8 | – |
| B8 | 1.42 | 0.51 |
| B9 | 0.29 | 1.73 |
| B10 | – | 0.79 |
| B11 | 0.38 | 0.31 |
| B12 | – | 3.85 |
| B13 | – | 3.23 |
| B14 | 1.86 | 4.11 |
| B15 | – | 0.3 |
| B16 | 3.3 | 1.71 |
| B17 | – | 0.3 |
| B18 | – | 0.19 |
| B19 | – | 0.97 |
